Assay results reported in patent publication US20160333062A1 (REGENTS OF THE UNIVERSITY OF COLORADO A BODY CORPORATE, published 2016).
Non-standard residues stand in square brackets, D forms with d. No end group written: not given here.

Assays:
[1] = target: the molecule itself; assay: RP-HPLC temperature profiling, self-association (dimerization/oligomerization)
Description: (§1) The purity of the peptides was verified by analytical RP-HPLC and the peptides were characterized by mass spectrometry (LC/MS). Crude and purified peptides were analyzed on an Agilent 1100 series liquid chromatograph (Little Falls, Del., USA). Analytical runs were performed on a Zorbax 300 SB-C₈ column (150×2.1 mm I.D.; 5 μm particle size, 300 Å pore size) from Agilent Technologies using a linear AB gradient (1% acetonitrile/min) and a flow rate of 0.25 mL/min, where eluent A was 0.2% aqueous TFA, pH 2, and eluent B was 0.18% TFA in acetonitrile. Temperature profiling analyses were performed on the same column in 3° C. increments, from 5° C. to 80° C. using a linear AB gradient of 0.5% acetonitrile/min.
^atR denotes retention time in RP-HPLC at pH 2 and room temperature, and is a measure of overall peptide hydrophobicity. ^bThe mean residue molar ellipticities [θ]₂₂₂ (deg cm²/dmol) at wavelength 222 nm were measured at 5° C. in benign conditions (100 mM KCl, 50 mM NaH₂PO₄/Na₂HPO₄, pH 7.0) or in benign buffer containing 50% trifluoroethanol (TFE) by circular dichroism spectroscopy. ^cThe helical content (as a percentage) of a peptide relative to the molar ellipticity value of parent peptide (D-Piscidin 1 or D-Dermaseptin S4) in the presence of 50% TFE. ^dPA denotes self-association parameter (dimerization/oligomerization) of each peptide during RP-HPLC temperature profiling, which is the maximal retention time difference of (tR^t-tR⁵ for peptide analogs)-(tR^t-tR⁵ for control peptide C) within the temperature range; tR^t-tR⁵ is the retention time difference of a peptide at a specific temperature (tR^{t)} compared with that at 5° C. (tR⁵). The sequence of the random coil control peptide C is shown in Table 1. ^eAmphipathicity was determined by calculation of hydrophobic moment using hydrophobicity coefficients determined by reversed-phase chromatography; see methods for details. The amphipathicity values for D-Dermaseptin S4 and its analogs (residues 1-14) are shown in brackets.

[2] = target: the molecule itself; assay: RP-HPLC temperature profiling, 5 to 80 C, pH 2 (self-association)
Description: as §1
Control peptide C is a monomeric random coil peptide in both aqueous and hydrophobic media; thus, its linear decrease in peptide retention behavior with increasing temperature within the range of 5° C. to 80° C. represents only the general effects of temperature due to greater solute diffusivity and enhanced mass transfer between the stationary and mobile phase at higher temperatures. To allow for these general temperature effects, the data for the control peptide was subtracted from each temperature profile, as shown in FIG. 6B. Thus, the peptide self-association parameter, PA, represents the maximum change in peptide retention time relative to the random coil peptide C. […]

B1: D-Piscidin 1 (peptide)
peptide: [dF][dF][dH][dH][dI][dF][dR]G[dI][dV][dH][dV]G[dK][dT][dI][dH][dR][dL][dV][dT]G-NH2
modifications: N-terminus assumed
SMILES: CC[C@@H](C)[C@@H](NC(=O)CNC(=O)[C@@H](CCCNC(=N)N)NC(=O)[C@@H](Cc1ccccc1)NC(=O)[C@H](NC(=O)[C@@H](Cc1c[nH]cn1)NC(=O)[C@@H](Cc1c[nH]cn1)NC(=O)[C@@H](Cc1ccccc1)NC(=O)[C@H](N)Cc1ccccc1)[C@H](C)CC)C(=O)N[C@@H](C(=O)N[C@H](Cc1c[nH]cn1)C(=O)N[C@@H](C(=O)NCC(=O)N[C@H](CCCCN)C(=O)N[C@@H](C(=O)N[C@@H](C(=O)N[C@H](Cc1c[nH]cn1)C(=O)N[C@H](CCCNC(=N)N)C(=O)N[C@H](CC(C)C)C(=O)N[C@@H](C(=O)N[C@@H](C(=O)NCC(N)=O)[C@H](C)O)C(C)C)[C@H](C)CC)[C@H](C)O)C(C)C)C(C)C
notes: also called native D-Piscidin 1
PA (self-association parameter) [1]: 0.78 min

B2: D-Piscidin 1 I9K (peptide)
peptide: [dF][dF][dH][dH][dI][dF][dR]G[dK][dV][dH][dV]G[dK][dT][dI][dH][dR][dL][dV][dT]G-NH2
modifications: N-terminus assumed
SMILES: CC[C@@H](C)[C@@H](NC(=O)[C@@H](Cc1c[nH]cn1)NC(=O)[C@@H](Cc1c[nH]cn1)NC(=O)[C@@H](Cc1ccccc1)NC(=O)[C@H](N)Cc1ccccc1)C(=O)N[C@H](Cc1ccccc1)C(=O)N[C@H](CCCNC(=N)N)C(=O)NCC(=O)N[C@H](CCCCN)C(=O)N[C@@H](C(=O)N[C@H](Cc1c[nH]cn1)C(=O)N[C@@H](C(=O)NCC(=O)N[C@H](CCCCN)C(=O)N[C@@H](C(=O)N[C@@H](C(=O)N[C@H](Cc1c[nH]cn1)C(=O)N[C@H](CCCNC(=N)N)C(=O)N[C@H](CC(C)C)C(=O)N[C@@H](C(=O)N[C@@H](C(=O)NCC(N)=O)[C@H](C)O)C(C)C)[C@H](C)CC)[C@H](C)O)C(C)C)C(C)C
notes: Synthetic all-D analog; also called D-Piscidin I9K
PA (self-association parameter) [1]: 1.29 min

B3: D-Piscidin 1 V12K (peptide)
peptide: [dF][dF][dH][dH][dI][dF][dR]G[dI][dV][dH][dK]G[dK][dT][dI][dH][dR][dL][dV][dT]G-NH2
modifications: N-terminus assumed
SMILES: CC[C@@H](C)[C@@H](NC(=O)CNC(=O)[C@@H](CCCNC(=N)N)NC(=O)[C@@H](Cc1ccccc1)NC(=O)[C@H](NC(=O)[C@@H](Cc1c[nH]cn1)NC(=O)[C@@H](Cc1c[nH]cn1)NC(=O)[C@@H](Cc1ccccc1)NC(=O)[C@H](N)Cc1ccccc1)[C@H](C)CC)C(=O)N[C@@H](C(=O)N[C@H](Cc1c[nH]cn1)C(=O)N[C@H](CCCCN)C(=O)NCC(=O)N[C@H](CCCCN)C(=O)N[C@@H](C(=O)N[C@@H](C(=O)N[C@H](Cc1c[nH]cn1)C(=O)N[C@H](CCCNC(=N)N)C(=O)N[C@H](CC(C)C)C(=O)N[C@@H](C(=O)N[C@@H](C(=O)NCC(N)=O)[C@H](C)O)C(C)C)[C@H](C)CC)[C@H](C)O)C(C)C
notes: Synthetic all-D analog
PA (self-association parameter) [1]: 0.69 min

B4: D-Piscidin 1 G13K (peptide)
peptide: [dF][dF][dH][dH][dI][dF][dR]G[dI][dV][dH][dV][dK][dK][dT][dI][dH][dR][dL][dV][dT]G-NH2
modifications: N-terminus assumed
SMILES: CC[C@@H](C)[C@@H](NC(=O)CNC(=O)[C@@H](CCCNC(=N)N)NC(=O)[C@@H](Cc1ccccc1)NC(=O)[C@H](NC(=O)[C@@H](Cc1c[nH]cn1)NC(=O)[C@@H](Cc1c[nH]cn1)NC(=O)[C@@H](Cc1ccccc1)NC(=O)[C@H](N)Cc1ccccc1)[C@H](C)CC)C(=O)N[C@@H](C(=O)N[C@H](Cc1c[nH]cn1)C(=O)N[C@@H](C(=O)N[C@H](CCCCN)C(=O)N[C@H](CCCCN)C(=O)N[C@@H](C(=O)N[C@@H](C(=O)N[C@H](Cc1c[nH]cn1)C(=O)N[C@H](CCCNC(=N)N)C(=O)N[C@H](CC(C)C)C(=O)N[C@@H](C(=O)N[C@@H](C(=O)NCC(N)=O)[C@H](C)O)C(C)C)[C@H](C)CC)[C@H](C)O)C(C)C)C(C)C
notes: Synthetic all-D analog; also called D-Piscidin G13K
PA (self-association parameter) [1]: 0.95 min

B5: D-Dermaseptin S4 L7K (peptide)
peptide: [dA][dL][dW][dM][dT][dL][dK][dK][dK][dV][dL][dK][dA][dA][dA][dK][dA][dL][dN][dA][dV][dL][dV]G[dA][dN][dA]-NH2
modifications: N-terminus assumed
SMILES: CSCC[C@@H](NC(=O)[C@@H](Cc1c[nH]c2ccccc12)NC(=O)[C@@H](CC(C)C)NC(=O)[C@@H](C)N)C(=O)N[C@@H](C(=O)N[C@H](CC(C)C)C(=O)N[C@H](CCCCN)C(=O)N[C@H](CCCCN)C(=O)N[C@H](CCCCN)C(=O)N[C@@H](C(=O)N[C@H](CC(C)C)C(=O)N[C@H](CCCCN)C(=O)N[C@H](C)C(=O)N[C@H](C)C(=O)N[C@H](C)C(=O)N[C@H](CCCCN)C(=O)N[C@H](C)C(=O)N[C@H](CC(C)C)C(=O)N[C@H](CC(N)=O)C(=O)N[C@H](C)C(=O)N[C@@H](C(=O)N[C@H](CC(C)C)C(=O)N[C@@H](C(=O)NCC(=O)N[C@H](C)C(=O)N[C@H](CC(N)=O)C(=O)N[C@H](C)C(N)=O)C(C)C)C(C)C)C(C)C)[C@H](C)O
notes: Synthetic all-D analog; also called D-Dermaseptin S4 L7K (27-mer)
PA (self-association parameter) [1]: 4.8 min

B6: D-Dermaseptin S4 L7K, A14K (peptide)
peptide: [dA][dL][dW][dM][dT][dL][dK][dK][dK][dV][dL][dK][dA][dK][dA][dK][dA][dL][dN][dA][dV][dL][dV]G[dA][dN][dA]-NH2
modifications: N-terminus assumed
SMILES: CSCC[C@@H](NC(=O)[C@@H](Cc1c[nH]c2ccccc12)NC(=O)[C@@H](CC(C)C)NC(=O)[C@@H](C)N)C(=O)N[C@@H](C(=O)N[C@H](CC(C)C)C(=O)N[C@H](CCCCN)C(=O)N[C@H](CCCCN)C(=O)N[C@H](CCCCN)C(=O)N[C@@H](C(=O)N[C@H](CC(C)C)C(=O)N[C@H](CCCCN)C(=O)N[C@H](C)C(=O)N[C@H](CCCCN)C(=O)N[C@H](C)C(=O)N[C@H](CCCCN)C(=O)N[C@H](C)C(=O)N[C@H](CC(C)C)C(=O)N[C@H](CC(N)=O)C(=O)N[C@H](C)C(=O)N[C@@H](C(=O)N[C@H](CC(C)C)C(=O)N[C@@H](C(=O)NCC(=O)N[C@H](C)C(=O)N[C@H](CC(N)=O)C(=O)N[C@H](C)C(N)=O)C(C)C)C(C)C)C(C)C)[C@H](C)O
notes: Synthetic all-D analog; also called D-Dermaseptin S4 L7K, A14K (27-mer)
PA (self-association parameter) [1]: 2.29 min

B7: Control C (peptide)
peptide: Ac-ELEKGGLEGEKGGKELEK-NH2
notes: also called control peptide C; random coil control peptide (C)
binding result [2]: no binding
